Assay results reported in patent US20240374745A1.

Key:
[1] = target: PD-1-hFc (human); experiment: BLI, immobilized PD-1-hFc; untreated sample before LRP1 depletion
[2] = target: CTLA-4-hFc; experiment: BLI, immobilized CTLA-4-hFc; untreated sample before LRP1 depletion
Sequence of CTLA-4-hFc (chain, as listed by the source limits assumed): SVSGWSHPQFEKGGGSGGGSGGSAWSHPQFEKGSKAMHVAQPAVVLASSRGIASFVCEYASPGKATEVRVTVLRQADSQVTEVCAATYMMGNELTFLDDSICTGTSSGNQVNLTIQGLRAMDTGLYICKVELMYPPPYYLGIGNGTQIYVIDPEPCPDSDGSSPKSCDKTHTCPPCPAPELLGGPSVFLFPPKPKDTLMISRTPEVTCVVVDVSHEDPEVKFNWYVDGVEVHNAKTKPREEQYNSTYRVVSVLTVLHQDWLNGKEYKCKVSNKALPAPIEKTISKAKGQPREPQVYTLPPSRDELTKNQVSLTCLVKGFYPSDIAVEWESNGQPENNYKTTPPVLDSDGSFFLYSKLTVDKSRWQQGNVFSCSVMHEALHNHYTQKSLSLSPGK

Sequence of PD-1-hFc (human) (chain, as listed by the source limits assumed): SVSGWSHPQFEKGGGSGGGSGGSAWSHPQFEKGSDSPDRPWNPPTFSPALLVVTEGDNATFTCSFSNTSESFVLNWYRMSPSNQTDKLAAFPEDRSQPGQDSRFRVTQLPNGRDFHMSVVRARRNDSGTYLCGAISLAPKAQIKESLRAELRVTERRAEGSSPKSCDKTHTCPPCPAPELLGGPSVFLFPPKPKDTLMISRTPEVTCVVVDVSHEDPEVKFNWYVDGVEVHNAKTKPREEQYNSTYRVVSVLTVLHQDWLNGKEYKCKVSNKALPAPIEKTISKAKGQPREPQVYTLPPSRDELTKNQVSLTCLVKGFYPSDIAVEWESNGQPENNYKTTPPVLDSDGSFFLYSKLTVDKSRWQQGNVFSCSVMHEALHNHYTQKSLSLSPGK

Row | percent of the maximum binding defined by thermolysin activation [1] [%] | percent of the maximum binding defined by thermolysin activation [2] [%] | Substance
1 | 25 |  | A2M-Nivolumab, untreated (native conformation)
2 |  | 25 | A2M-Ipilimumab, untreated (native conformation)
